# According to IntAct's records for PubMed 18052611:
# B1: Protein matrimony (Drosophila melanogaster (Fruit fly)), Q23973 (parent)
# chain: MENSRTPTNKTKITLNRTPTLKERRWNTLKVNTSNVRCSTPIFGNFRSPNLSPIENMGTKGKSPVSPMRFATFKKVPTKVHPKQQQQQQHQHCHRTQLKPPPFVLPKPQEEIIEPEREIKSCSSPDTCSDDSNMETSLALESRRRSIKASNHSYVVNHAANVEQILMHMGLENYVTNFEEAHIDLVELASLERADLVKIGLNTDEDCNRIMDVLHTL
# partner: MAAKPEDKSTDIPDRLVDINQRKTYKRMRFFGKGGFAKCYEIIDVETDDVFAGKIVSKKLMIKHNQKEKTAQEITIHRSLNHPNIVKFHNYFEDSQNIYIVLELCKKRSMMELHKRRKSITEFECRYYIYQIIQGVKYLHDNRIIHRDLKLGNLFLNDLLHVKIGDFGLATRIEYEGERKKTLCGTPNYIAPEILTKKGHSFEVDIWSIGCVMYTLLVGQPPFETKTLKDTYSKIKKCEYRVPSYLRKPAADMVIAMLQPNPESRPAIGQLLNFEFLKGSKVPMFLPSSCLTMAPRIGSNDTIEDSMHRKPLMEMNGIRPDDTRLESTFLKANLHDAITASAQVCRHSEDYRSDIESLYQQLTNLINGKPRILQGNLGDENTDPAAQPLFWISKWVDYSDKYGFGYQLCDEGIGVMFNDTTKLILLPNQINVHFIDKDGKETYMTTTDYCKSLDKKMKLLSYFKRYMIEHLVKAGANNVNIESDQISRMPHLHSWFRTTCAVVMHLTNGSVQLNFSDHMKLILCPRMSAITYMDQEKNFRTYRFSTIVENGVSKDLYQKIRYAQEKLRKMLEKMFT
# Variants of: B1
# Details: with polo_drome polo
row,Variant,effect of a mutation on the interaction
1,MENSRTPTNKTKITLNRTPTLKERRWNTLKVNTSNVRCSAPIFGNFRSPNLSPIENMGTKGKSPVSPMRFATFKKVPTKVHPKQQQQQQHQHCHRTQLKPPPFVLPKPQEEIIEPEREIKSCSSPDTCSDDSNMETSLALESRRRSIKASNHSYVVNHAANVEQILMHMGLENYVTNFEEAHIDLVELASLERADLVKIGLNTDEDCNRIMDVLHTL [T40A],disrupting interaction
